Source: US20260216242A1 (ALMAC DISCOVERY, published 2026)

Tests used:
human ALPP on CHO cells [1] = target: T1, human ALPP on CHO cells (human, UniProt P05187 23-506); test: flow cytometry, CHO cells stably expressing human ALPP; His6-tagged VHH detected with anti-His tag Ab and FITC anti-mouse Ab
T1 construct: whole, on cells; also called CHO-ALPP
Procedure: (§1) C-terminal His tagged VHH proteins were assessed for ALPP, ALPPL2, ALPI and ALPL cell-surface binding by flow cytometry. Binders encompassing different epitope bins were screened on CHO cells stably expressing ALPP, ALPPL2, ALPI or ALPL. High levels of cell-surface proteins expression were confirmed for each of the cell-lines by flow cytometry.
(§2) Cell surface binding of test agents to hALPP isoforms was characterized in four CHO-ALPP isoform stably transfected cell lines (CHO-ALPP, CHO-ALPPL2, CHO-ALPI and CHO-ALPL) and the resulting KDapp values determined. Adherent cells were detached from tissue culture flasks by incubating with 0.1% EDTA/PBS solution at 37° C. for ~10 minutes or until cells detached easily. Cells were re-suspended in ice-cold PBS/2% FCS in 15 ml tubes and centrifuged at 1700 rpm for 5 mins at 4° C. Supernatant was removed and the cell pellet re-suspended in PBS/2% FCS. […] Cells were incubated with 100 μl of test agents at a range of concentrations, plus controls for 1 hr on ice. The sample plate was centrifuged at 1700 rpm for 5 mins at 4° C. The supernatant was removed, and a wash performed by re-suspending the cell pellets in 0.25 mL of ice-cold PBS/2% FCS using a multichannel pipette. […] Binding of VHH (His6 tagged) agents was determined by adding 100 μl of anti-x6His tag Ab (Abcam) per cell pellet sample as appropriate and incubating on ice for 30 mins. […]

[2] = target: T2, human ALPPL2 on CHO cells (human, UniProt P10696 20-503); test: flow cytometry, CHO cells stably expressing human ALPPL2; His6-tagged VHH detected with anti-His tag Ab and FITC anti-mouse Ab
T2 construct: whole, on cells; also called CHO-ALPPL2
Procedure: as §1, §2

[3] = target: T2, human ALPPL2 on CHO cells; test: flow cytometry, CHO cells, KDapp
Procedure: (§3) Cell surface binding of test agents to hALPP isoforms was characterized in four CHO-ALPP isoform stably transfected cell lines (CHO-ALPP, CHO-ALPPL2, CHO-ALPI and CHO-ALPL) and the resulting KDapp values determined. Adherent cells were detached from tissue culture flasks by incubating with 0.1% EDTA/PBS solution at 37° C. for ~10 minutes or until cells detached easily. Cells were re-suspended in ice-cold PBS/2% FCS in 15 ml tubes and centrifuged at 1700 rpm for 5 mins at 4° C. Supernatant was removed and the cell pellet re-suspended in PBS/2% FCS. […] Cells were incubated with 100 μl of test agents at a range of concentrations, plus controls for 1 hr on ice. The sample plate was centrifuged at 1700 rpm for 5 mins at 4° C. The supernatant was removed, and a wash performed by re-suspending the cell pellets in 0.25 mL of ice-cold PBS/2% FCS using a multichannel pipette. Samples were again centrifuged at 1700 rpm for 5 min at 4° C. Supernatant was removed and two further washes performed as described. After the final wash and centrifugation step, excess liquid was removed by blotting the plate on tissue paper. Binding of VHH (His6 tagged) agents was determined by adding 100 μl of anti-x6His tag Ab (Abcam) per cell pellet sample as appropriate and incubating on ice for 30 mins. Wash steps were performed as described previously. Fitc-anti-mouse antibody (ThermoFisher) was used to detect binding of the VHH (His6 tagged) agents by incubating with the appropriate samples for 30 min on ice in the dark. Wash steps were performed as described previously. All cell pellets were finally re-suspended in […] of ice-cold PBS/2% FCS and left on ice in the dark prior to analysis on a Merck-Millipore Guava EasyCyte HT or Thermo Fisher Attune N×T flow cytometer.

human ALPP on CHO cells [4] = target: T1, human ALPP on CHO cells; test: flow cytometry, CHO cells, KDapp
Procedure: as §3

[5] = target: T3, Human ALPP (leucine zipper) (human); test: BLI, antigen immobilised
T3 construct: Whole entry: ALPP fused with a cysteine stabilised leucine zipper and His tag; also called hALPP
T3 chain: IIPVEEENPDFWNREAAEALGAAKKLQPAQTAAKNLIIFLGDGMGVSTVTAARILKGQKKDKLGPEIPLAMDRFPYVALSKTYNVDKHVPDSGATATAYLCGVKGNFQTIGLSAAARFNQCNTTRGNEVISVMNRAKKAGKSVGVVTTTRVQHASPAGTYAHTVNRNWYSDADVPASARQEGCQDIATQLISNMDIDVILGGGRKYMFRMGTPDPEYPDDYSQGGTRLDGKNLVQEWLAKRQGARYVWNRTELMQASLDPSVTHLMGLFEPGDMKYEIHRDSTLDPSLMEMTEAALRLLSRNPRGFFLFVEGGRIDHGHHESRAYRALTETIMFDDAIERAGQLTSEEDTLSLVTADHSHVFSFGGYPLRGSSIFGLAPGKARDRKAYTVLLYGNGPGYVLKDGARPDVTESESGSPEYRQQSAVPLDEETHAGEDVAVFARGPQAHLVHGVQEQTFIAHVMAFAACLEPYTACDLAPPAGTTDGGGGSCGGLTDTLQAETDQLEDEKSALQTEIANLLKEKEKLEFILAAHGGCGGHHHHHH
Procedure: (§4) Binding kinetics were determined using the Biolayer Interferometry (BLI) Octet K2 system (Sartorius). […] All assays were conducted in PBS with a plate temperature of 25° C. Ka (M⁻¹s⁻¹), Kd (s⁻¹) and KD (nM) values were determined using Octet Data Analysis High Throughput software (ForteBio) for Biolayer Interferometry.

[6] = target: T4, Human ALPPL2 (leucine zipper) (human); test: BLI, antigen immobilised
T4 construct: Whole entry: fused with a cysteine stabilised leucine zipper and His tag; also called hALPPL2
T4 chain: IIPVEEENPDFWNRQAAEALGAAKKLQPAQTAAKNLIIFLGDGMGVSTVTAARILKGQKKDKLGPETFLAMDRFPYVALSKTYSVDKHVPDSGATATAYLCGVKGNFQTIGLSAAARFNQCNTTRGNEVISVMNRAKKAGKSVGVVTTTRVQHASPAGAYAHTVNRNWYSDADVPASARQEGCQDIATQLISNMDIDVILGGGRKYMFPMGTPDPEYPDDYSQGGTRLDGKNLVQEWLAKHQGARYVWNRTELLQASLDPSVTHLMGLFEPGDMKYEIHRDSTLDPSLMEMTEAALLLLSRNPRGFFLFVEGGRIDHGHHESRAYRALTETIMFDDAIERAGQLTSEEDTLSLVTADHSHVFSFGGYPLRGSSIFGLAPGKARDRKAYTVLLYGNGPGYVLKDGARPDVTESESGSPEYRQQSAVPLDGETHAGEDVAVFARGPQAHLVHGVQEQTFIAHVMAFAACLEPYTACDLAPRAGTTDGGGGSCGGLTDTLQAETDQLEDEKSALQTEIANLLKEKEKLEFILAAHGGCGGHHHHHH
Procedure: as §4

[7] = target: T2, human ALPPL2 on CHO cells; test: flow cytometry, CHO cells stably expressing human ALPPL2; PDC detected with FITC anti-human Ab
Procedure: (§5) Biparatopic VHH-hFc drug conjugates were assessed for human ALPP, ALPPL2, ALPI and ALPL cell-surface binding by flow cytometry. Binders were screened on CHO cells stably expressing human ALPP, ALPPL2, ALPI or ALPL.
(§6) Cell surface binding of test agents to hALPP isoforms was characterized in four CHO-ALPP isoform transfectant cell lines (CHO-ALPP, CHO-ALPPL2, CHO-ALPI and CHO-ALPL) and the resulting KDapp values determined. Adherent cells were detached from tissue culture flasks by incubating with 0.1% EDTA/PBS solution at 37° C. for […] or until cells detached easily. Cells were re-suspended in ice-cold PBS/2% FCS in 15 ml tubes and centrifuged at 1700 rpm for 5 mins at 4° C. Supernatant was removed and the cell pellet re-suspended in PBS/2% FCS. […] Cells were incubated with 100 μl of test agents at a range of concentrations, plus controls for 1 hr on ice. The sample plate was centrifuged at 1700 rpm for 5 mins at 4° C. The supernatant was removed, and a wash performed by re-suspending the cell pellets in 0.25 mL of ice-cold PBS/2% FCS using a multichannel pipette. Samples were again centrifuged at 1700 rpm for 5 min at 4° C. Supernatant was removed and two further washes performed as described. […] Binding of VHH-hFc agents was determined by adding 100 μl of Fitc-anti-human Ab (ThermoFisher) and incubating for 30 mins on ice in the dark. […]

human ALPL on CHO cells = target: T5, human ALPL on CHO cells (human, UniProt P05186 18-501); test: flow cytometry, CHO cells stably expressing human ALPL; PDC detected with FITC anti-human Ab
T5 construct: whole, on cells; also called CHO-ALPL
T5 sequence (looked up): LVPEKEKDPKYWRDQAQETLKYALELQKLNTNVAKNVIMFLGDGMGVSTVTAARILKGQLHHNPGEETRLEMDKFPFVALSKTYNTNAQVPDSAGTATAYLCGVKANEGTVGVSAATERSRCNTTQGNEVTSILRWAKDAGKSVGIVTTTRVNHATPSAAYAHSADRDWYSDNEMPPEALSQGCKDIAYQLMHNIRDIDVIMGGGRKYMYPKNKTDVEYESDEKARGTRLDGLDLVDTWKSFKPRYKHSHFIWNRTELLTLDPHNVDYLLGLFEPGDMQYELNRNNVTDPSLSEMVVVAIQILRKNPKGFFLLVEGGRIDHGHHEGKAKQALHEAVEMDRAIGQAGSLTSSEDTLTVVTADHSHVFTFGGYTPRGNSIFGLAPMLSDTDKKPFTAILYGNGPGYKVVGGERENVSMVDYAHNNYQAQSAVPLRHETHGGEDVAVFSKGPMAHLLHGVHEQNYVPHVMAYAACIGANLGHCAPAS
Outline: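 Cell-surface binding to CHO cells stably transfected with human ALPP, ALPPL2, ALPI or ALPL; cells detached with 0.1% EDTA/PBS, incubated with biparatopic VHH-hFc drug conjugates over a concentration range for 1 hr on ice. Bound agent detected with FITC anti-human Ab (30 min, ice, dark) by flow cytometry; KDapp derived from binding.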

human ALPP on CHO cells [8] = target: T1, human ALPP on CHO cells; test: flow cytometry, CHO cells stably expressing human ALPP; PDC detected with FITC anti-human Ab
Procedure: as §5, §6

B1: B01 His (VHH, not shown: small tags and cut ends)
VHH: QVQLVESGGGLVQAGGSLRLSCEVTRSPMPIDTMAWYRQAPGRQRELVAIISRSGSTNYADSVKGRFTISRNDTKSTMYKSTMYLKMNTLELEDTGVYYCNAVGLWNGAEYWGQGTQVTVSS
EC50 (read off the curve) (human ALPP on CHO cells [1]): ~5 nM
EC50 (read off the curve) [2]: ~5 nM
Kd [3]: 5 nM
Kd (human ALPP on CHO cells [4]): 5.3 nM
Kd [5]: 1.18 nM
koff [5]: 0.000191 s⁻¹
kon [5]: 162000 M⁻¹ s⁻¹
Kd [6]: 0.29 nM
koff [6]: 0.00014 s⁻¹
kon [6]: 482000 M⁻¹ s⁻¹

B2: D10-A06 hFc-vcPAB-MMAE [G4S]3 (Fc fusion, DAR 4)
chain 1: QVQLVESGGGLVQPGGSLRLSCAASGSIFSVNTMGWYRQAPGKQRDLVAVATSGGTIHYADSVKGRFTISRDNAKNTVYLQMNSLKPEDTAVYYCNLVVPYGMIAGDHDYWGQGTKVTVSSGGGGSGGGGSGGGGSEPKSSDKTHTCPPCPAPELLGGPCVFLFPPKPKDTLMISRTPEVTCVVVDVSHEDPEVKFNWYVDGVEVHNAKTKPREEQYNSTYRVVSVLTVLHQDWLNGKEYKCKVSNKALPAPIEKTISKAKGQPREPQVYTLPPSRDELTKNQVSLYCLVKGFYPSDIAVEWESNGQPENNYKTTPPVLDSDGSFFLYSKLTVDKSRWQQGNVFSCSVMHEALHNHYTQKSLCLSPGK
chain 2: QVHLVESGGGLVQAGGSLRLSCAASGRTFLSMGWFRQAPGKEREFVAAISWTGGSTGYADSVKGRFTISRESDKETMYLQMNSLKPEDTAVYYCAARGDVYYGGDDATRYKYWGQGTQVTVSSGGGGSGGGGSGGGGSEPKSSDKTHTCPPCPAPELLGGPCVFLFPPKPKDTLMISRTPEVTCVVVDVSHEDPEVKFNWYVDGVEVHNAKTKPREEQYNSTYRVVSVLTVLHQDWLNGKEYKCKVSNKALPAPIEKTISKAKGQPREPQVYTLPPSRDELTKNQVSLTCLVKGFYPSDIAVEWESNGQPENNYKTTPPVLDSDGSFFLTSKLTVDKSRWQQGNVFSCSVMHEALHNHYTQKSLCLSPGK
modifications: MC-vc-PAB-MMAE on Cys 239 and Cys 442 (EU numbering)
notes: Biparatopic drug conjugate, DAR 4; also called #633
EC50 (read off the curve) [7]: ~5 nM
binding result (human ALPL on CHO cells): no binding (tested: 350 nM)

B3: D10-A06-hFc-vcPAB-MMAE [G4S]1 (Fc fusion, DAR 4)
chain 1: QVQLVESGGGLVQPGGSLRLSCAASGSIFSVNTMGWYRQAPGKQRDLVAVATSGGTIHYADSVKGRFTISRDNAKNTVYLQMNSLKPEDTAVYYCNLVVPYGMIAGDHDYWGQGTKVTVSSGGGGSEPKSSDKTHTCPPCPAPELLGGPCVFLFPPKPKDTLMISRTPEVTCVVVDVSHEDPEVKFNWYVDGVEVHNAKTKPREEQYNSTYRVVSVLTVLHQDWLNGKEYKCKVSNKALPAPIEKTISKAKGQPREPQVYTLPPSRDELTKNQVSLYCLVKGFYPSDIAVEWESNGQPENNYKTTPPVLDSDGSFFLYSKLTVDKSRWQQGNVFSCSVMHEALHNHYTQKSLCLSPGK
chain 2: QVHLVESGGGLVQAGGSLRLSCAASGRTFLSMGWFRQAPGKEREFVAAISWTGGSTGYADSVKGRFTISRESDKETMYLQMNSLKPEDTAVYYCAARGDVYYGGDDATRYKYWGQGTQVTVSSGGGGSEPKSSDKTHTCPPCPAPELLGGPCVFLFPPKPKDTLMISRTPEVTCVVVDVSHEDPEVKFNWYVDGVEVHNAKTKPREEQYNSTYRVVSVLTVLHQDWLNGKEYKCKVSNKALPAPIEKTISKAKGQPREPQVYTLPPSRDELTKNQVSLTCLVKGFYPSDIAVEWESNGQPENNYKTTPPVLDSDGSFFLTSKLTVDKSRWQQGNVFSCSVMHEALHNHYTQKSLCLSPGK
modifications: MC-vc-PAB-MMAE on Cys 239 and Cys 442 (EU numbering)
notes: Biparatopic drug conjugate, DAR 4; also called #676
binding result (human ALPL on CHO cells): no binding (tested: 350 nM)
EC50 (read off the curve) (human ALPP on CHO cells [8]): 10 to 22 nM
